Here are results for 94 variants from the supplement of paper PMC10567573.

B1: NFE2L1 (parent)
chain: TLDGYGIHPKSIDLDNYFTARRLL
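Further: lentivirally expressed fusions sorted by FACS into six bins by GFP to DsRed ratio, PSI derived from sequencing read proportions per bin multiplied by bin number.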

In this data set the parent is B1. Put plainly: protein stability index of a GFP-peptide fusion (GPS, HEK-293T) (PSI 1-6); higher = more stable. The settings on record: c terminus: a fixed tail appended.
Regarding TLDGYGIHPKSIDLDNYFTARRKL [L23K], the protein stability index came out at 3.26.
Take TLDGYGIHPKSIDLDNYFTARRWL [L23W]: the protein stability index is 1.82.
For TLDGYGIHPKSIDLDNYFTARRHL [L23H] the value was 2.18.
Turning to TLDGYGIHPKSIDLDNYFTARRPL [L23P], the protein stability index came out at 2.54.
With TLDGYGIHPKSIDLDNYFTARRIL [L23I], the protein stability index stood at 1.64.
Take TLDGYGIHPKSIDLDNYFTARREL [L23E]: the protein stability index was found to be 2.6.
Regarding TLDGYGIHPKSIDLDNYFTARRQL [L23Q], the protein stability index came to 2.71.
As to TLDGYGIHPKSIDLDNYFTARRDL [L23D], the protein stability index worked out at 2.4.
On to TLDGYGIHPKSIDLDNYFTARRFL [L23F], for which the protein stability index amounted to 1.93.
With TLDGNGIHPKSIDLDNYFTARRLL [Y5N], the protein stability index stood at 2.25.
Take TLDGRGIHPKSIDLDNYFTARRLL [Y5R]: the protein stability index is 1.76.
For TLDGLGIHPKSIDLDNYFTARRLL [Y5L] the value was 2.3; for TLDGQGIHPKSIDLDNYFTARRLL [Y5Q], 1.48.
Take TLDGAGIHPKSIDLDNYFTARRLL [Y5A]: the protein stability index was determined as 2.67.
On to TLDGPGIHPKSIDLDNYFTARRLL [Y5P], for which the protein stability index turned out to be 2.13.
With TLDGGGIHPKSIDLDNYFTARRLL [Y5G], the protein stability index is 2.43.
As to TLDGYGIHPKSIDLFNYFTARRLL [D15F], the protein stability index is 2.6.
In the case of TLDGYGIHPKSIDLANYFTARRLL [D15A], the protein stability index was determined as 1.9.
As to TLDGYGIHPKSIDLWNYFTARRLL [D15W], the protein stability index came out at 2.21.
Regarding TLDGYGIHPKSIDLPNYFTARRLL [D15P], the protein stability index came to 2.06.
On to TLDGYGIHPKSIDLSNYFTARRLL [D15S], for which the protein stability index was 2.44.
Consider TLDGYGIHPKSIDLLNYFTARRLL [D15L], for which the protein stability index came to 1.57.
Regarding TLDGYGIHPKSIDLMNYFTARRLL [D15M], the protein stability index stood at 1.84.
Take TLDGYGIHPKSIDLGNYFTARRLL [D15G]: the protein stability index came to 2.3.
For the variant TLDGYGIHPKSIDLHNYFTARRLL [D15H], the protein stability index stood at 1.89.
For the variant TLDGYGIHPKSIDLDNYFTARILL [R22I], the protein stability index was found to be 3.54.
For TLDGYGIHPKSIDLDNYFTARWLL [R22W] the value was 2.21.
For TLDGYGIHPKSIDLDNYFTARCLL [R22C] the value was 2.16; for TLDGYGIHPKSIDLDNYFTARTLL [R22T], 2.25.
For the variant TLDGYGIHPKSIDLDNYFTARQLL [R22Q], the protein stability index stood at 1.89.
On to TLDGYGIHPKSIDLDNYFPARRLL [T19P], for which the protein stability index came out at 2.
TLDGYGIHPKSIDLDNYFNARRLL [T19N]: the protein stability index was 2.09.
As for TLDGYGIHPKSIDLDNYFQARRLL [T19Q], the protein stability index amounted to 1.77.
For TLDGYGIHPKSIDLDNYFSARRLL [T19S] the value was 1.9.
On to TLDGYGIHPKSIDLDNYFDARRLL [T19D], for which the protein stability index was found to be 2.07.
As to TLDGYGIHPKSIDLDNYFRARRLL [T19R], the protein stability index stood at 2.81.
As for TLDGYGIHPKSIDLDNYFYARRLL [T19Y], the protein stability index came out at 1.8.
On to TLDGYGIHPKSIDLDNYFVARRLL [T19V], for which the protein stability index was found to be 1.66.
For TLDGYGIHPKSIDLDNYFWARRLL [T19W] the value was 2.08; for TEDGYGIHPKSIDLDNYFTARRLL [L2E], 2.05.
For TKDGYGIHPKSIDLDNYFTARRLL [L2K] the value was 2.19; for TADGYGIHPKSIDLDNYFTARRLL [L2A], 1.58; for TNDGYGIHPKSIDLDNYFTARRLL [L2N], 2.06.
Regarding TFDGYGIHPKSIDLDNYFTARRLL [L2F], the protein stability index was found to be 1.97.
TTDGYGIHPKSIDLDNYFTARRLL [L2T]: the protein stability index was found to be 2.23.
Regarding TSDGYGIHPKSIDLDNYFTARRLL [L2S], the protein stability index stood at 1.7.
For TQDGYGIHPKSIDLDNYFTARRLL [L2Q] the value was 1.66; for TVDGYGIHPKSIDLDNYFTARRLL [L2V], 1.74.
For TLSGYGIHPKSIDLDNYFTARRLL [D3S] the value was 1.71.
On to TLCGYGIHPKSIDLDNYFTARRLL [D3C], for which the protein stability index stood at 1.77.
TLNGYGIHPKSIDLDNYFTARRLL [D3N]: the protein stability index is 2.33.
Consider TLPGYGIHPKSIDLDNYFTARRLL [D3P], for which the protein stability index was 1.62.
Turning to TLTGYGIHPKSIDLDNYFTARRLL [D3T], the protein stability index worked out at 1.61.
Consider TLIGYGIHPKSIDLDNYFTARRLL [D3I], for which the protein stability index is 2.06.
For TLDMYGIHPKSIDLDNYFTARRLL [G4M] the value was 2.09; for TLDRYGIHPKSIDLDNYFTARRLL [G4R], 1.95; for TLDEYGIHPKSIDLDNYFTARRLL [G4E], 1.47.
With TLDNYGIHPKSIDLDNYFTARRLL [G4N], the protein stability index is 2.03.
TLDLYGIHPKSIDLDNYFTARRLL [G4L]: the protein stability index was found to be 1.27.
For TLDHYGIHPKSIDLDNYFTARRLL [G4H] the value was 1.62.
TLDFYGIHPKSIDLDNYFTARRLL [G4F]: the protein stability index was found to be 1.46.
For TLDQYGIHPKSIDLDNYFTARRLL [G4Q] the value was 1.75.
Turning to TLDYYGIHPKSIDLDNYFTARRLL [G4Y], the protein stability index was determined as 1.5.
As to TLDGYGIAPKSIDLDNYFTARRLL [H8A], the protein stability index is 2.22.
For TLDGYGITPKSIDLDNYFTARRLL [H8T] the value was 2.05; for TLDGYGISPKSIDLDNYFTARRLL [H8S], 1.81.
Turning to TLDGYGIMPKSIDLDNYFTARRLL [H8M], the protein stability index is 1.82.
For the variant TLDGYGINPKSIDLDNYFTARRLL [H8N], the protein stability index was 1.78.
On to TLDGYGIGPKSIDLDNYFTARRLL [H8G], for which the protein stability index came to 1.75.
Consider TLDGYGIPPKSIDLDNYFTARRLL [H8P], for which the protein stability index came out at 1.94.
Take TLDGYGNHPKSIDLDNYFTARRLL [I7N]: the protein stability index is 2.1.
TLDGYGCHPKSIDLDNYFTARRLL [I7C]: the protein stability index is 2.4.
For TLDGYGSHPKSIDLDNYFTARRLL [I7S] the value was 1.91; for TLDGYGAHPKSIDLDNYFTARRLL [I7A], 2.01.
Regarding TLDGYGVHPKSIDLDNYFTARRLL [I7V], the protein stability index was found to be 1.68.
For the variant TLDGYGHHPKSIDLDNYFTARRLL [I7H], the protein stability index stood at 2.85.
For TLDGYGDHPKSIDLDNYFTARRLL [I7D] the value was 2.4.
Turning to TLDGYGYHPKSIDLDNYFTARRLL [I7Y], the protein stability index amounted to 1.9.
For RLDGYGIHPKSIDLDNYFTARRLL [T1R] the value was 1.66; for DLDGYGIHPKSIDLDNYFTARRLL [T1D], 1.92; for QLDGYGIHPKSIDLDNYFTARRLL [T1Q], 1.99.
Take ALDGYGIHPKSIDLDNYFTARRLL [T1A]: the protein stability index amounted to 2.49.
For HLDGYGIHPKSIDLDNYFTARRLL [T1H] the value was 1.69; for VLDGYGIHPKSIDLDNYFTARRLL [T1V], 1.55; for ILDGYGIHPKSIDLDNYFTARRLL [T1I], 1.36.
On to TLDGYGIHPKNIDLDNYFTARRLL [S11N], for which the protein stability index was 2.19.
On to TLDGYGIHPKAIDLDNYFTARRLL [S11A], for which the protein stability index stood at 1.49.
As for TLDGYGIHPKVIDLDNYFTARRLL [S11V], the protein stability index was 2.49.
Turning to TLDGYGIHPKRIDLDNYFTARRLL [S11R], the protein stability index turned out to be 1.97.
TLDGYGIHPKQIDLDNYFTARRLL [S11Q]: the protein stability index amounted to 1.89.
Take TLDGYGIHPKPIDLDNYFTARRLL [S11P]: the protein stability index amounted to 2.04.
Turning to TLDGYAIHPKSIDLDNYFTARRLL [G6A], the protein stability index was determined as 2.26.
As to TLDGYKIHPKSIDLDNYFTARRLL [G6K], the protein stability index was 1.91.
For the variant TLDGYYIHPKSIDLDNYFTARRLL [G6Y], the protein stability index is 1.71.
